4 substances from article PMC10404244 can be followed below.

Assay [1] has as its target tyrosinated microtubules polymerized from purified porcine brain tubulin (porcine) (UniProt P02550). The assay can be described thus: single-molecule TIRF microscopy (landing rate, processive motility); tyrosinated and detyrosinated microtubules held by biotin-streptavidin in the same chamber, motors at single-molecule concentrations, 2 mM ATP, HP assay buffer pH 7.0.
For assay [2], the target named is detyrosinated microtubules: porcine brain tubulin treated with carboxypeptidase A (CPA) (porcine) (UniProt P02550). The assay can be described thus: TIRF microscopy microtubule-binding assay (mean fluorescence intensity); tyrosinated and detyrosinated microtubules held in the same chamber, 2 mM ADP (Fig. 4C: 50 nM motor, 10 min), HP assay buffer pH 7.0.
Assay [3] deals with tyrosinated microtubules polymerized from purified porcine brain tubulin (porcine) (UniProt P02550). The description is as above.
The target is the same in assay [4]. Description: single-molecule TIRF microscopy (landing rate, dwell time); tyrosinated and detyrosinated microtubules held in the chamber, single molecules of motors, 2 mM ADP, HP assay buffer pH 7.0.
Assay [5] deals with detyrosinated microtubules: porcine brain tubulin treated with carboxypeptidase A (CPA) (porcine) (UniProt P02550). The assay can be described thus: TIRF microscopy microtubule-binding assay (titration of fluorescence intensity); apparent; motor titrated 0.1–50 nM on held tyrosinated and detyrosinated microtubules, ADP; n = 160 MTs, N = 2.
For assay [6], the target named is tyrosinated microtubules polymerized from purified porcine brain tubulin (porcine) (UniProt P02550). The assay is described as above.
Assay [7] has the same target. Description: TIRF microscopy microtubule-binding assay (mean fluorescence intensity); tyrosinated and detyrosinated microtubules held in the same chamber, 2 mM AMP-PNP, HP assay buffer pH 7.0.

Sequence of human KIF13B CAP-Gly fragment (a.a. 1685–1826), N-terminal sfGFP-StrepII (Q9NQT8 1685-1826): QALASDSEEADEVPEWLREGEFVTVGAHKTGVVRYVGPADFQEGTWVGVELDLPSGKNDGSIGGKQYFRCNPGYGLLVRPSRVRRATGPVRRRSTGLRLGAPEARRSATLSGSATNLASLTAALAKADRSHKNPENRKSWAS

As to “full-length human KIF13B V178Q, C-terminal sfGFP-StrepII (from UniProt Q9NQT8 1-1826) (natural protein)”, the fold landing rate, tyrosinated over detyrosinated microtubules (ATP) in assay [1] worked out at 2 fold.

For “full-length human KIF13B K414A, C-terminal sfGFP-StrepII (from UniProt Q9NQT8 1-1826) (natural protein)”, the fold motor density on microtubules over KIF13B (50 nM, ADP) in assay [2] worked out at 11 fold. In addition, in assay [3], the fold binding (fluorescence intensity), tyrosinated over detyrosinated microtubules, ADP is 2 fold and the fold motor density on microtubules over KIF13B (50 nM, ADP) is 3 fold. In assay [4], the fold dwell time, tyrosinated over detyrosinated microtubules (ADP) is 1.5 fold and the fold landing rate, tyrosinated over detyrosinated microtubules (ADP) amounted to 2 fold. The substance also yielded a fold landing rate, tyrosinated over detyrosinated microtubules (ATP) in assay [1] of 2 fold. Further, the Kd in assay [5] was determined as 72.7 nM. Further, the Kd in assay [6] is 23.7 nM.

Consider “human KIF13B CAP-Gly fragment (a.a. 1685–1826), N-terminal sfGFP-StrepII (from UniProt Q9NQT8 1685-1826) (domain or fragment)”, for which, in assay [4], the fold landing rate, tyrosinated over detyrosinated microtubules (ADP) was 14 fold and the fold lower dwell time than full-length KIF13B or KIF13B^Δtail (tyrosinated microtubules, ADP) lay in the range of 2 to 3 fold.

With “full-length human KIF13B (wild type), C-terminal sfGFP-StrepII (from UniProt Q9NQT8 1-1826) (natural protein)”, in assay [3], the fold binding (fluorescence intensity), tyrosinated over detyrosinated microtubules, ADP was determined as 8 fold. This substance also registered a fold binding (fluorescence intensity), tyrosinated over detyrosinated microtubules, AMP-PNP in assay [7] of 1.4 fold. In assay [4], this substance came in with a fold dwell time, tyrosinated over detyrosinated microtubules (ADP) of 1.3 fold and a fold landing rate, tyrosinated over detyrosinated microtubules (ADP) of 2 fold. This substance also yielded a fold landing rate, tyrosinated over detyrosinated microtubules (ATP) in assay [1] of 2 fold.
